Reference: patent US20250320281A1

B1: 1503_H05 (PG16) (TCN-119) (antibody, V domains shown)
VH: QEKLVESGGGVVQPGGSLRLSCLASGFTFHKYGMHWVRQAPGKGLEWVALISDDGMRKYHSDSMWGRVTISRDNSKNTLYLQFSSLKVEDTAMFFCAREAGGPIWHDDVKYYDFNDGYYNYHYMDVWGKGTIVTVSS
VL: QSALTQPASVSGSPGQTITISCNGTRSDVGGFDSVSWYQQSPGKAPKVMVFDVSHRPSGISNRFSGSKSGNTASLTISGLHIEDEGDYFCSSLTDRSHRIFGGGTKVTVLG
B2: 1469_M23 (PG16) (TCN-118) (antibody, V domains shown)
VH: QEKLVESGGGVVQPGGSLRLSCLASGFTFHKYGMHWVRQAPGKGLEWVALISDDGMRKYHSDSMWGRVTISRDNSKNTLYLQFSSLKVEDTAMFFCAREAGGPIWHDDVKYYDFNDGYYNYHYMDVWGKGTTVTVSS
VL: QSALTQPASVSGSPGQTITISCNGTRSDVGGFDSVSWYQQSPGRAPKVMVFDVSHRPSGISNRFSGSKSGNTASLTISGLHIEDEGDYFCSSLTDRSHRIFGGGTKLTVLG
B3: 1489_I13 (PG16) (TCN-120) (antibody, V domains shown)
VH: QEQLLESGGGVVQPGGSLRLSCLASGFTFHKYGMHWVRQAPGKGLEWVALISDDGMRKYHSNSMWGRVTISRDNSKNTLYLQFSSLKVEDTAMFFCAREAGGPIWHDDVKYYDFNDGYYNYHYMDVWGKGTTVTVSS
VL: QSALTQPASVSGSPGQTITISCNGTSSDVGGFDSVSWYQQSPGKAPKVMVFDVSHRPSGISNRFSGSKSGNTASLTISGLHIEDEGDYFCSSLTDRSHRIFGGGTKVTVLG
B4: 1456_A12 (PG16) (TCN-117) (antibody, V domains shown)
VH: HEQLVEAGGGVVQPGGSLRLSCLASGFTFHKYGMHWVRQAPGKGLEWVALISDDGMRKYHSDSMWGRVTISRDNSKNTLYLQFSSLRVEDTAMFFCAREAGGPIWHDDVKYYDFNDGYYNYHYMDVWGKGTKVTVSS
VL: QSALTQPASVSGSPGQTITISCNGTSRDVGGFDSVSWYQQSPGKAPKVMVFDVSHRPSGMSNRFSGSKSGNTASLTISGLHIEDEGDYFCSSLTDRSHRIFGGGTKLTVLG

Columns and labels:
Experiment in all cases: cell-based or functional assay
[1] = molecular target: HIV-1 Env of isolate THRO.18 (clade B pseudovirus) (HIV-1)
[2] = molecular target: HIV-1 Env of isolate PVO.4 (clade B pseudovirus) (HIV-1)
[3] = molecular target: HIV-1 Env of isolate Du172 (clade C pseudovirus) (HIV-1)
[4] = molecular target: HIV-1 Env of isolate CAP45 (clade C pseudovirus) (HIV-1)
[5] = molecular target: HIV-1 Env of isolate ZM214 (clade C pseudovirus) (HIV-1)
[6] = molecular target: HIV-1 92RW020 Env (HIV-1 92RW020)
[7] = molecular target: HIV-1 ADA Env (HIV-1 ADA)
[8] = molecular target: HIV-1 Env of isolate AC10 (clade B pseudovirus) (HIV-1)
[9] = molecular target: MuLV envelope protein (control pseudovirus) (MuLV)
[10] = molecular target: HIV-1 Env of isolate DU156 (clade C pseudovirus) (HIV-1)
[11] = molecular target: HIV-1 Env of isolate REJ04541 (clade B pseudovirus) (HIV-1)
[12] = molecular target: HIV-1 Env of isolate DU422 (clade C pseudovirus) (HIV-1)
[13] = molecular target: HIV-1 JR-FL Env E168K (HIV-1 JR-FL)
[14] = molecular target: HIV-1 Env of isolate CAAN (clade B pseudovirus) (HIV-1)
[15] = molecular target: HIV-1 Env of isolate ZM233 (clade C pseudovirus) (HIV-1)
[16] = molecular target: HIV-1 Env of isolate TR0.11 (clade B pseudovirus) (HIV-1)
[17] = molecular target: HIV-1 Env of isolate ZM249 (clade C pseudovirus) (HIV-1)

Row | Binder | IC50 (neutralization, TZM-bl pseudovirus assay) [1] [µg/mL] | IC50 (neutralization, TZM-bl pseudovirus assay) [2] [µg/mL] | IC50 (neutralization, TZM-bl pseudovirus assay) [3] [µg/mL] | IC50 (neutralization, TZM-bl pseudovirus assay) [4] [µg/mL] | IC50 (neutralization, TZM-bl pseudovirus assay) [5] [µg/mL] | IC50 (ug/ml), pseudovirus neutralization, TZM-bl assay [6] [µg/mL] | IC50 (ug/ml), pseudovirus neutralization, TZM-bl assay [7] [µg/mL] | IC50 (neutralization, TZM-bl pseudovirus assay) [8] [µg/mL] | IC50 (neutralization, TZM-bl pseudovirus assay) [9] [µg/mL] | IC50 (neutralization, TZM-bl pseudovirus assay) [10] [µg/mL] | IC50 (neutralization, TZM-bl pseudovirus assay) [11] [µg/mL] | IC50 (neutralization, TZM-bl pseudovirus assay) [12] [µg/mL] | IC50 (ug/ml), pseudovirus neutralization, TZM-bl assay [13] [µg/mL] | IC50 (neutralization, TZM-bl pseudovirus assay) [14] [µg/mL] | IC50 (neutralization, TZM-bl pseudovirus assay) [15] [µg/mL] | IC50 (neutralization, TZM-bl pseudovirus assay) [16] [µg/mL] | IC50 (neutralization, TZM-bl pseudovirus assay) [17] [µg/mL]
1 | B1 | 4.12 | 11 | < 0.01 | < 0.01 | > 25 | 0.02 | 0.003 | < 0.01 | > 25 | < 0.01 | 0.22 | 0.71 | 0.002 | 13.5 | < 0.01 | 4.3 | < 0.01
2 | B2 | 7.01 | 21.2 | < 0.01 | < 0.01 | > 25 | 0.05 | 0.005 | < 0.01 | > 25 | < 0.01 | 0.39 | 0.97 | 0.005 | 17.7 | < 0.01 | 7.52 | < 0.01
3 | B3 | 7.41 | 20.6 | < 0.01 | < 0.01 | > 25 | 0.03 | 0.008 | < 0.01 | > 25 | < 0.01 | 0.34 | 1.87 | 0.005 | 24.9 | < 0.01 | 10.9 | < 0.01
4 | B4 | 2.08 | 10.4 | < 0.01 | < 0.01 | > 25 | 0.05 | 0.005 | < 0.01 | > 25 | < 0.01 | < 0.01 | 0.36 | 0.003 | 10.6 | < 0.01 | 3.05 | < 0.01
